Laboratory results as given in PMC3696004.
Each block holds one molecule with its values, some of them ahead of it.

Tests used:
[1] = biological target: HAFib3 (Fib3 prey fragment with an N-terminal hemagglutinin tag) (human) (UniProt Q12805); assay: ELISA; HAFib3 (250 ng/ml) captured on plate-bound anti-HA antibody; a range of concentrations of CFH678 (H or Y) in PBS, overnight at 4°C; detected with goat anti-CFH and HRP secondary antibody at 450 nm; background without HAFib3 subtracted, 8 replicates; one-site specific binding fit (GraphPad Prism)
[2] = biological target: CFH SCR7 bait, 402H variant (human); assay: two-hybrid; quantitative βGal assay in selective liquid culture with CPRG substrate, Miller Units; five independent yeast clones for each bait
CFH SCR7 bait, 402H variant (human), sequence (P08603 19-1231, change not shown): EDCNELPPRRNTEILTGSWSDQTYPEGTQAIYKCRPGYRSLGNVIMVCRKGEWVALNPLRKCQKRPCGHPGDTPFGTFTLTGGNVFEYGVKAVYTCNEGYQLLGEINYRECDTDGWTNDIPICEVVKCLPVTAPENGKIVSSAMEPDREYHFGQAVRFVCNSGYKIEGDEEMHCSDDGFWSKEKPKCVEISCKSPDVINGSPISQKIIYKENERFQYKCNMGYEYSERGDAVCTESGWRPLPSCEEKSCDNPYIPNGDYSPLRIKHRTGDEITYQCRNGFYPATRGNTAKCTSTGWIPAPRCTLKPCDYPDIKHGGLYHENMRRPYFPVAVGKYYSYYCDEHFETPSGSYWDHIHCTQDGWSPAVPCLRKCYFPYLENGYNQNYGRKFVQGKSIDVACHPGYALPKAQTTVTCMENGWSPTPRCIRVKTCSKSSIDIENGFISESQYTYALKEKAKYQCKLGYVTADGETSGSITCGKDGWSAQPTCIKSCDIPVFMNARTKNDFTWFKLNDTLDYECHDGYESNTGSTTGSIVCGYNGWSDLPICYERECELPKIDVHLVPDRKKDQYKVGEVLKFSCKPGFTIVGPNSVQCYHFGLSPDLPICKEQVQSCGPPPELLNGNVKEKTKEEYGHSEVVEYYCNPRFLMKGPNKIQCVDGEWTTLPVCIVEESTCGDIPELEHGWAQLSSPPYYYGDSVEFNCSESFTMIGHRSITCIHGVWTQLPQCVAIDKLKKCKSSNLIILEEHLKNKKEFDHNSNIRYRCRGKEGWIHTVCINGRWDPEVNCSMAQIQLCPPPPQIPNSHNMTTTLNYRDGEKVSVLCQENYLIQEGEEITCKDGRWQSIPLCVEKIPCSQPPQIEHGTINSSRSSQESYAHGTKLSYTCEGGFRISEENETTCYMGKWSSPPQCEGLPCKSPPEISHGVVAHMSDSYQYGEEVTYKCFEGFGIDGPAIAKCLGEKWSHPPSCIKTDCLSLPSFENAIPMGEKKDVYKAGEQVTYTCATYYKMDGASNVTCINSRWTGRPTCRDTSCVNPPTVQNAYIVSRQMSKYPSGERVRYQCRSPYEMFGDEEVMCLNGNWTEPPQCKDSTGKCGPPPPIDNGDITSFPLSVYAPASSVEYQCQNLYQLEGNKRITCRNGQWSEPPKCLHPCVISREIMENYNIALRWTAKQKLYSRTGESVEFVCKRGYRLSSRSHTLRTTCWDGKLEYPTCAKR

Kd [1]: 134 nM
Molecule: Recombinant CFH domains 6-8, 402H variant (CFH678-H) (domain or fragment)

Kd [1]: 197 nM
Molecule: Recombinant CFH domains 6-8, 402Y variant (CFH678-Y) (domain or fragment)

higher βGal activation than with CFH-Y [2]: 60%
B1: Fib3 prey fusion protein from the Y2H screen (EFEMP1/Fibulin 3 residues 289-493) (domain or fragment)
chain: RLNCEDIDECRTSSYLCQYQCVNEPGKFSCMCPQGYQVVRSRTCQDINECETTNECREDEMCWNYHGGFRCYPRNPCQDPYILTPENRCVCPVSNAMCRELPQSIVYKYMSIRSDRSVPSDIFQIQATTIYANTINTFRIKSGNENGEFYLRQTSPVSAMLVLVKSLSGPREHIVDLEMLTVSSIGTFRTSSVLRLTIIVGPFSF
